Test results as given in publication PMC10272880.

Target: T1, LldR (Escherichia coli K-12 W3110 type-A) (UniProt P0ACL7)
T1 sequence: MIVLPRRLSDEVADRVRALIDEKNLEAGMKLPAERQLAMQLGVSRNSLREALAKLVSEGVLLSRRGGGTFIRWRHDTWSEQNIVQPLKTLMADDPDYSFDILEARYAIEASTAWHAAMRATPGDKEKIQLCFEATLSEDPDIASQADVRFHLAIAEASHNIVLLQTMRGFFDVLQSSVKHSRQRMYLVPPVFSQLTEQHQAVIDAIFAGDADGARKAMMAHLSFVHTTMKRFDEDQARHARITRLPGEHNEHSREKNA
Experiment: EMSA
Settings: EMSA: binding buffer (composition given for gSELEX: 10 mM Tris-HCl pH 7.8 at 4 °C, 3 mM Mg acetate, 150 mM NaCl, 1.25 mg/ml BSA), 37 °C 30 min, then effector …

## GATTTTCAACCAGATATGATCATGGTTACGCCATCTTATTGCCTTAACCTGATTGAAGAGCTGGAGCGGCAGTTGGGCGGTGATGCCAGCGGTTGCTCGCTGCGGGTTGGAGTATTTGGTGCTGAGCCGTGGACACAGGCCATGCGTAAAGAGATTGAGCGTCGCCTGGGGATCACCGCACTGGATATTTATGGCCTGTCAGAAGTGATGGGGCCGGGGGTGGCGATGGAGTGTCTGGAAACTACCGACGGCCCAACCATTTGGGAAGATCATTTCTATCCTGAAATTGTTA (double strand) [paaX promoter probe]
  binding: no binding

## TCCCGGACCTCGTGCACAGGTAGGACCAATTTTTCTGTTCTTAACTCGCAAAACACGCACATCACGTAAGTGATTATGTTACATCAATTTAACATTGAGTTAACCAAGACAAGGTCACAGAGCTGGAAAAAAAATGGTCTGACCGGTAGCTAAAGAGATAGACGAAAACGAAAAGCCCGCTTAATAACTGTTCACAGAAGCAGCGCGCAAAAATCAGCTGCCACACAACACAACAAAGCGAAGCCTACTCATGAGCATCTTGTACGAAGAGCGTCTT (double strand) [glcD/glcC probe]
  binding: binds
